{
  "source": "patent US20260055150",
  "key": {"[1]": {"target": "mutant p53 (bacterially purified, commercial), P04637"}, "[2]": {"target": "wild type p53 (bacterially purified, commercial), P04637"}},
  "data": [
    {"protein": "GRAIL C-terminal fragment (amino acids 229-428), recombinant (protein) YSARRLRNARAQSRKQRQLKADAKKAIGRLQLRTLKQGDKEIGPDGDSCAVCIELYKPNDLVRILTCNHIFHKTCVDPWLLEHRTCPMCKCDILKALGIEVDVEDGSVSLQVPVSNEISNSASSHEEDNRSETASSGYASVQGTDEPPLEEHVQSTNESLQLVNHEANSVAVDVIPHVDNPTFEEDETPNQETAVREIKS", "values": [
      {"measurement": "in vitro ubiquitination assay (UBE1, UBCH5, Myc-tagged ubiquitin), immunoblot", "setting": "[1]", "value": "a C-terminal RF containing GRAIL fragment is efficient in polyubiquitinating mutant p53 as compared to wild type protein"},
      {"measurement": "in vitro ubiquitination assay (UBE1, UBCH5, Myc-tagged ubiquitin), immunoblot", "setting": "[2]", "value": "a C-terminal RF containing GRAIL fragment is efficient in polyubiquitinating mutant p53 as compared to wild type protein"}
    ]}
  ]
}
